Source: the supplement of paper PMC11246515
± gives the standard deviation of the averaged measurements.

Assay: total protein half-life in vivo (active degradation + dilution); higher = more stable protein
[1] = E. coli NCM3722 delta-clpP delta-lon delta-hslV, growth: N-lim chemostat, doubling time 6 h
[2] = E. coli NCM3722 delta-hslV, growth: N-lim chemostat, doubling time 6 h
[3] = E. coli NCM3722 delta-lon, growth: N-lim chemostat, doubling time 6 h
[4] = E. coli NCM3722 delta-smpB, growth: N-lim chemostat, doubling time 6 h
[5] = wild type E. coli NCM3722, growth: C-lim chemostat, doubling time 3 h
[6] = wild type E. coli NCM3722, growth: N-lim chemostat, doubling time 6 h
[7] = wild type E. coli NCM3722, growth: N-lim chemostat, doubling time 12 h
[8] = wild type E. coli NCM3722, growth: P-lim chemostat, doubling time 6 h
[9] = wild type E. coli NCM3722, growth: P-lim chemostat, doubling time 12 h
[10] = E. coli NCM3722 delta-clpP, growth: N-lim chemostat, doubling time 6 h
[11] = wild type E. coli NCM3722, growth: C-lim chemostat, doubling time 6 h
[12] = wild type E. coli NCM3722, growth: C-lim chemostat, doubling time 12 h

Sequence | total protein half-life in vivo [1] [h] | total protein half-life in vivo [2] [h] | total protein half-life in vivo [3] [h] | total protein half-life in vivo [4] [h] | total protein half-life in vivo [5] [h] | total protein half-life in vivo [6] [h] | total protein half-life in vivo [7] [h] | total protein half-life in vivo [8] [h] | total protein half-life in vivo [9] [h] | total protein half-life in vivo [10] [h] | total protein half-life in vivo [11] [h] | total protein half-life in vivo [12] [h]
MRTRHLVGLISGVLILSVLLPVGLSIWLAHQQVETSFIEELDTYSSRVAIRANKVATQGKDALQELERWQGAACSEAHLMEMRRVSYSYRYIQEVAYIDNNVPQCSSLEHESPPDTFPEPGKISKDGYRVWLTSHNDLGIIRYMVAMGTAHYVVMIDPASFIDVIPYSSWQIDAAIIGNAHNVVITSSDEIAQGIITRLQKTPGEHIENNGIIYDILPLPEMNISIITWASTKMLQKGWHRQVFIWLPLGLVIGLLAAMFVLRILRRIQSPHHRLQDAIENRDICVHYQPIVSLANGKIVGAEALARWPQTDGSWLSPDSFIPLAQQTGLSEPLTLLIIRSVFEDMGDWLRQHPQQHISINLESPVLTSEKIPQLLRDMINHYQVNPRQIALELTEREFADPKTSAPIISRYREAGHEIYLDDFGTGYSSLSYLQDLDVDILKIDKSFVDALEYKNVTPHIIEMAKTLKLKMVAEGIETSKQEEWLRQHGVHYGQGWLYSKALPKEDFLRWAEQHL | 6.97 ± 0.34 | 5.64 ± 0.36 | 5.57 ± 1.2 | 6.12 ± 0.67 | 3.21 ± 0.33 | 6 ± 0.23 | 12.2 ± 0.44 | 6.32 ± 0.94 | 12.6 ± 0.13 |  |  | 
MRVLVTGGSGYIGSHTCVQLLQNGHDVIILDNLCNSKRSVLPVIERLGGKHPTFVEGDIRNEALMTEILHDHAIDTVIHFAGLKAVGESVQKPLEYYDNNVNGTLRLISAMRAANVKNFIFSSSATVYGDQPKIPYVESFPTGTPQSPYGKSKLMVEQILTDLQKAQPDWSIALLRYFNPVGAHPSGDMGEDPQGIPNNLMPYIAQVAVGRRDSLAIFGNDYPTEDGTGVRDYIHVMDLADGHVVAMEKLANKPGVHIYNLGAGVGNSVLDVVNAFSKACGKPVNYHFAPRREGDLPAYWADASKADRELNWRVTRTLDEMAQDTWHWQSRHPQGYPD | 6.39 ± 1.9 | 4.54 ± 0.37 | 5 ± 0.24 | 5.61 ± 1.2 | 3.11 ± 0.27 | 4.53 ± 0.95 | 13.7 ± 1.8 | 5.91 ± 0.51 | 11.7 ± 0.53 | 4.762 ± 0.027 | 5.62 ± 0.26 | 11.6 ± 0.67
MRVNLLITMIIFALIWPVTALRAAVSKTTWADAPAREFVFVENNSDDNFFVTPGGALDPRLTGANRWTGLKYTGSGTIYQQSLGYIDNGYNTGLYTNWKFDMWLENSPVSSPLTGLRCINWYAGCNMTTSLILPQTTDASGFYGATVTSGGAKWMHGMLSDAFYQYMQQMPVGSSFTMTINACQTSVNYDASSGARCKDQASGNWYVRNVTHTKAANLRLINTHSLAEVFINSDGVPTLGEGNADCRTQTIGSRSGLSCKMVNYTLQTNGLSNTSIHIFPAIANSSLASAVGAYDMQFSLNGSSWKPVSNTAYYYTFNEMKSADSIYVFFSSNFFKQMVNLGISDINTKDLFNFRFQNTTSPESGWYEFSTSNTLIIKPRDFSISIISDEYTQTPSREGYVGSGESALDFGYIVTTSGKTAADEVLIKVTGPAQVIGGRSYCVFSSDDGKAKVPFPATLSFITRNGATKTYDAGCDDSWRDMTDALWLTTPWTDISGEVGQMDKTTVKFSIPMDNAISLRTVDDNGWFGEVSASGEIHVQATWRNIN | 5.48 | 4.45 ± 0.53 |  | 5.38 ± 0.3 | 2.41 | 5.187 ± 0.038 | 10.3 | 6.55 | 10.9 ± 2.3 | 4.16 ± 0.31 | 5.13 ± 0.19 | 10.2 ± 0.39
MRVSRSLTIKQMAMVAAVVLVFVFIFCTVLLFHLVQQNRYNTATQLESIARSVREPLSSAILKGDIPEAEAILASIKPAGVVSRADVVLPNQFQALRKSFIPERPVPVMVTRLFELPVQISLGVYSLERPANPQPIAYLVLQADSFRMYKFVMSTLSTLVTIYLLLSLILTVAISWCINRLILHPLRNIARELNAIPAKELVGHQLALPRLHQDDEIGMLVRSYNLNQQLLQRHYEEQNENAMRFPVSDLPNKALLMEMLEQVVARKQTTALMIITCETLRDTAGVLKEAQREILLLTLVEKLKSVLSPRMILAQISGYDFAVIANGVQEPWHAITLGQQVLTIMSERLPIERIQLRPHCSIGVAMFYGDLTAEQLYSRAISAAFTARHKGKNQIQFFDPQQMEAAQKRLTEESDILNALENHQFAIWLQPQVEMTSGKLVSAEVLLRIQQPDGSWDLPDGLIDRIECCGLMVTVGHWVLEESCRLLAAWQERGIMLPLSVNLSALQLMHPNMVADMLELLTRYRIQPGTLILEVTESRRIDDPHAAVAILRPLRNAGVRVALDDFGMGYAGLRQLQHMKSLPIDVLKIDKMFVEGLPGDSSMIAAIIMLAQSLNLQMIAEGVETEAQRDWLAKAGVGIAQGFLFARPLPIEIFEESYLEEK | 6.54 ± 0.19 | 6.2 ± 0.23 | 5.77 ± 0.32 | 6.1 ± 0.082 | 2.998 ± 0.0049 | 6.054 ± 0.008 | 12.3 ± 0.63 | 6.161 ± 0.035 | 12.5 ± 0.55 | 6.31 ± 0.11 | 5.7 ± 1.1 | 13 ± 0.22
MRVVILGSGVVGVASAWYLNQAGHEVTVIDREPGAALETSAANAGQISPGYAAPWAAPGVPLKAIKWMFQRHAPLAVRLDGTQFQLKWMWQMLRNCDTSHYMENKGRMVRLAEYSRDCLKALRAETNIQYEGRQGGTLQLFRTEQQYENATRDIAVLEDAGVPYQLLESSRLAEVEPALAEVAHKLTGGLQLPNDETGDCQLFTQNLARMAEQAGVKFRFNTPVDQLLCDGEQIYGVKCGDEVIKADAYVMAFGSYSTAMLKGIVDIPVYPLKGYSLTIPIAQEDGAPVSTILDETYKIAITRFDNRIRVGGMAEIVGFNTELLQPRRETLEMVVRDLYPRGGHVEQATFWTGLRPMTPDGTPVVGRTRFKNLWLNTGHGTLGWTMACGSGQLLSDLLSGRTPAIPYEDLSVARYSRGFTPSRPGHLHGAHS [P0A6J5] | 2.86 ± 0.088 | 2.16 ± 0.24 | 2.06 | 1.95 ± 0.12 | 1.01 ± 0.16 | 2.04 ± 0.17 | 3.35 ± 0.27 | 2.27 ± 0.23 | 4.77 ± 0.97 | 1.88 ± 0.14 | 1.65 ± 0.11 | 2.68 ± 0.58
MRWILFILFCLLGAPAHAVSIPGVTTTTTTDSTTEPAPEPDIEQKKAAYGALADVLDNDTSRKELIDQLRTVAATPPAEPVPKIVPPTLVEEQTVLQKVTEVSRHYGEALSARFGQLYRNITGSPHKPFNPQTFSNALTHFSMLAVLVFGFYWLIRLCALPLYRKMGQWARQKNRERSNWLQLPAMIIGAFIIDLLLLALTLFVGQVLSDNLNAGSRTIAFQQSLFLNAFALIEFFKAVLRLIFCPNVAELRPFTIQDESARYWSRRLSWLSSLIGYGLIVAVPIISNQVNVQIGALANVIIMLCMTVWALYLIFRNKKEITQHLLNFAEHSLAFFSLFIRAFALVWHWLASAYFIVLFFFSLFDPGNSLKFMMGATVRSLAIIGIAAFVSGMFSRWLAKTITLSPHTQRNYPELQKRLNGWLSAALKTARILTVCVAVMLLLSAWGLFDFWNWLQNGAGQKTVDILIRIALILFFSAVGWTVLASLIENRLASDIHGRPLPSARTRTLLTLFRNALAVIISTITIMIVLSEIGVNIAPLLAGAGALGLAISFGSQTLVKDIITGVFIQFENGMNTGDLVTIGPLTGTVERMSIRSVGVRQDTGAYHIIPWSSITTFANFVRGIGSVVANYDVDRHEDADKANQALKDAVAELMENEEIRGLIIGEPNFAGIVGLSNTAFTLRVSFTTLPLKQWTVRFALDSQVKKHFDLAGVRAPVQTYQVLPAPGATPAEPLPPGEPTL | 4.93 ± 1 |  | 5.15 ± 0.43 |  |  | 4.92 | 9.64 ± 0.63 | 6.83 ± 0.65 | 13 ± 1.4 | 6.1 ± 0.28 | 2.55 ± 2 | 6.41 ± 4.3
MRYIRQLCCVSLLCLSGSAVAANVRLQVEGLSGQLEKNVRAQLSTIESDEVTPDRRFRARVDDAIREGLKALGYYQPTIEFDLRPPPKKGRQVLIAKVTPGVPVLIGGTDVVLRGGARTDKDYLKLLDTRPAIGTVLNQGDYENFKKSLTSIALRKGYFDSEFTKAQLGIALGLHKAFWDIDYNSGERYRFGHVTFEGSQIRDEYLQNLVPFKEGDEYESKDLAELNRRLSATGWFNSVVVAPQFDKARETKVLPLTGVVSPRTENTIETGVGYSTDVGPRVKATWKKPWMNSYGHSLTTSTSISAPEQTLDFSYKMPLLKNPLEQYYLVQGGFKRTDLNDTESDSTTLVASRYWDLSSGWQRAINLRWSLDHFTQGEITNTTMLFYPGVMISRTRSRGGLMPTWGDSQRYSIDYSNTAWGSDVDFSVFQAQNVWIRTLYDRHRFVTRGTLGWIETGDFDKVPPDLRFFAGGDRSIRGYKYKSIAPKYANGDLKGASKLITGSLEYQYNVTGKWWGAVFVDSGEAVSDIRRSDFKTGTGVGVRWESPVGPIKLDFAVPVADKDEHGLQFYIGLGPEL [P0ADE4] |  | 6.538 ± 0.011 | 6.38 ± 0.61 | 5.85 ± 0.15 | 3.013 ± 0.0066 | 6.59 ± 1 | 13.5 ± 0.56 | 6.31 ± 0.16 | 13.8 ± 0.96 | 6.81 ± 0.13 | 6.21 ± 0.37 | 12.8 ± 0.55
MRYLNTKNIIAAGVLLSCMSSIAWGAIIPDRTRIIMNESDKGEALKLTNQSKNLPYLAQTWIEDTKGNKSRDFIVTVPPMVRLNPSEQIQIRMITQEKIAQLPKDRETLFYFNVREIPPKTDKKNVMQVTMQHALKLFWRPKAIELEDDGVMTYEKVEIIRRNDGSIRFNNKMPYHVTLGYIGTNGVTMLPQTQSLMVTPFSYANTQFKNVPSTFQVGYINDFGGLSFYEINCPVVNNICNISVANRDQ |  |  |  | 5.38 |  | 5.39 | 11.3 | 5.6 | 14.3 |  |  | 
MSAGKLPEGWVIAPVSTVTTLIRGVTYKKEQAINYLKDDYLPLIRANNIQNGKFDTTDLVFVPKNLVKESQKISPEDIVIAMSSGSKSVVGKSAHQHLPFECSFGAFCGVLRPEKLIFSGFIAHFTKSSLYRNKISSLSAGANINNIKPASFDLINIPIPPLAEQKIIAEKLDTLLAQVDSTKARFEQIPQILKRFRQAVLGGAVNGKLTEKWRNFEPQHSVFKKLNFESILTELRNGLSSKPNESGVGHPILRISSVRAGHVDQNDIRFLECSESELNRHKLQDGDLLFTRYNGSLEFVGVCGLLKKLQHQNLLYPDKLIRARLTKDALPEYIEIFFSSPSARNAMMNCVKTTSGQKGISGKDIKSQVVLLPPVKEQAEIVRRVEQLFAYADTIEKQVNNALARVNNLTQSILAKAFRGELTAQWRAENPDLISGENSAAALLEKIKAERAASGGKKASRKKS | 5.47 ± 0.81 | 5.48 ± 0.098 | 6.44 ± 0.56 | 5.68 ± 0.34 | 3.08 ± 0.36 | 5.84 ± 0.44 | 10.7 ± 0.57 | 5.46 ± 0.33 | 10.9 ± 0.15 | 5.86 ± 0.12 | 6.03 ± 0.34 | 10.9 ± 0.68
MSAIAPGMILIAYLCGSISSAILVCRLCGLPDPRTSGSGNPGATNVLRIGGKGAAVAVLIFDVLKGMLPVWGAYELGVSPFWLGLIAIAACLGHIWPVFFGFKGGKGVATAFGAIAPIGWDLTGVMAGTWLLTVLLSGYSSLGAIVSALIAPFYVWWFKPQFTFPVSMLSCLILLRHHDNIQRLWRRQETKIWTKFKRKREKDPE | 6.82 | > 8 | 7.06 | 5.72 |  | 6.93 ± 0.78 | 9.94 | 6.01 ± 0.4 | 11 | 6.64 | 6.29 | 
MSAIDCIITAAGLSSRMGQWKMMLPWEQGTILDTSIKNALQFCSRIILVTGYRGNELHERYANQSNITIIHNPDYAQGLLTSVKAAVPAVQTEHCFLTHGDMPTLTIDIFRKIWSLRNDGAILPLHNGIPGHPILVSKPCLMQAIQRPNVTNMRQALLMGDHYSVEIENAEIILDIDTPDDFITAKERYTEI | 4.34 |  |  | 1.3 |  |  |  |  |  | 3 ± 0.059 | 2.39 ± 0.048 | 3.15 ± 0.1
